Numbering of substitutions follows the chain as printed. Numbers in names are those of the source.
Experiments:
Conditions in all cases: protein: recombinant;recombinant; tags: ;N-terminal His; copies: 1;1; label: 5'-32P on forward (C-rich) strand; blunt
[1] = target: T1, GABPA (GABP alpha);GABPB (GABP beta1L) (human?;human?, UniProt Q06546;Q06547 1-454;1-395, |); assay: DNase I footprinting; 5 uM GABP; bound via native site, not at the unmutated proto-sites; 20 mM Tris-Cl pH 7.5, 5% glycerol, 5.2 mM MgCl2, 50 mM KCl, 1 mM TCEP, 20 nM oligo, 1 h room temperature; EMSA on 4% native PAGE, 0.5x TBE, 4 C
T1 sequence (Q06546 whole entry, chain 1 of 2): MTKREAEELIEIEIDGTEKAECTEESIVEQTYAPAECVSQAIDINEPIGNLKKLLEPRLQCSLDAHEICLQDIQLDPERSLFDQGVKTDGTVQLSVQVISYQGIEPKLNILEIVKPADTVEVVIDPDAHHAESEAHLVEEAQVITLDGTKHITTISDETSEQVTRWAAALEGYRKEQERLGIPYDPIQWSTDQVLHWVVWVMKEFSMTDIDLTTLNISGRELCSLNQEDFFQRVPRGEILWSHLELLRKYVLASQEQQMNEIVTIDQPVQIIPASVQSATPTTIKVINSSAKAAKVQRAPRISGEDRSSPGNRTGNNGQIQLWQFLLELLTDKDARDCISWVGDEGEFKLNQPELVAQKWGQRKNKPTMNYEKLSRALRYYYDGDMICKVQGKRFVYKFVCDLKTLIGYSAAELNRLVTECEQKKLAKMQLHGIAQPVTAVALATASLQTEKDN
T1 sequence (Q06547 whole entry, chain 2 of 2): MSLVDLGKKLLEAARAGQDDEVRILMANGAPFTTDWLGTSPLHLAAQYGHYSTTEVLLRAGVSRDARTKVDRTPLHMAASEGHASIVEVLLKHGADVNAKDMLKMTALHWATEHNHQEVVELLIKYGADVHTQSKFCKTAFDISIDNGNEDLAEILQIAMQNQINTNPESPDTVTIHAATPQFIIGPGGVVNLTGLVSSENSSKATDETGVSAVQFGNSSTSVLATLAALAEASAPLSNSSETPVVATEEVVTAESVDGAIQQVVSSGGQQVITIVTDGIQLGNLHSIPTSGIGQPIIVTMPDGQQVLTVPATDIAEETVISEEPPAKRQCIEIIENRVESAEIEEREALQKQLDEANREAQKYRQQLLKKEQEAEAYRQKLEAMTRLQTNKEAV

[2] = target: T1, GABPA (GABP alpha);GABPB (GABP beta1L); assay: DNase I footprinting; 5 uM GABP; -124 de novo site and native site; 20 mM Tris-Cl pH 7.5, 5% glycerol, 5.2 mM MgCl2, 50 mM KCl, 1 mM TCEP, 20 nM oligo, 1 h room temperature; EMSA on 4% native PAGE, 0.5x TBE, 4 C
[3] = target: T1, GABPA (GABP alpha);GABPB (GABP beta1L); assay: DNase I footprinting; 5 uM GABP; -146 de novo site and native site; 20 mM Tris-Cl pH 7.5, 5% glycerol, 5.2 mM MgCl2, 50 mM KCl, 1 mM TCEP, 20 nM oligo, 1 h room temperature; EMSA on 4% native PAGE, 0.5x TBE, 4 C

B1: TERTp WT 90 (dsDNA)
DNA 1: ACCCCGCCCCGTCCCGACCCCTCCCGGGTCCCCGGCCCAGCCCCCTCCGGGCCCTCCCAGCCCCTCCCCTTCCTTTCCGCGGCCCCGCCC
DNA 2: GGGCGGGGCCGCGGAAAGGAAGGGGAGGGGCTGGGAGGGCCCGGAGGGGGCTGGGCCGGGGACCCGGGAGGGGTCGGGACGGGGCGGGGT
binding result [1]: binds

B2: TERTp -124 mutant 90 (C228T) (dsDNA)
DNA 1: B1 DNA 1 with C45T
DNA 2: B1 DNA 2 with G46A
binding result [2]: binds

B3: TERTp -146 mutant 90 (C250T) (dsDNA)
DNA 1: B1 DNA 1 with C23T
DNA 2: B1 DNA 2 with G68A
binding result [3]: binds
